The results in this text go back to US20140044644A1 (UNIVERSITY OF ZURICH, published 2014).

Experiment [1] concerns the target ankB in mouse brain homogenate (mouse, UniProt Q8C8R3 1-3898, limits assumed). Kind of experiment: co-immunoprecipitation (ankG immunoprecipitate) from mouse brains, Western blot. From the text: (§1) FIG. 6: AnkG interacts directly with APP in the brain [0020] (a) AnkG and APP immunoprecipitates from human frontal cortex were immunoblotted with specific antibodies against ankG, APP and ankB. Immunoprecipitates with non-immune IgG served as a negative control. Note that APP co-immunoprecipitated with ankG and vice versa. Human brain homogenate (C) was used as positive control. (b) AnkG immunoprecipitates were obtained from arcAbeta (TG), non-transgenic (NTG) littermates and APP deficient (−/−) mouse brains. Note that APP, but not ankB, co-immunoprecipitated with ankG. Mouse brain homogenate (C) was used as positive control. (c) Primary rat hippocampal cultures were stained with antibodies against the C-terminal portion of APP (green) and with antibodies against ankG (red). Note the presence of both ankG and APP in the AIS. Scale bar=10 μm (upper panels) and Scale bar=30 μm (lower panels). […] AnkG binding to BSA-coated wells (2 mg/ml) served as negative control. Mean values (OD₄₅₀)±SEM are shown (n=6). (e) AnkG and APP immunoprecipitates from human AD hippocampus were immunoblotted with specific antibodies against APP and Caspr and L1. Immunoprecipitates with non-immune IgG served as a negative control. As already shown in (a) APP co-immunoprecipitated with ankG. Note the absence of Caspr and L1 from the immunoprecipitates. AD hippocampus homogenate (+) was used as positive control. […]
On the technique in general: In western blotting, separated proteins are transferred to a membrane and probed.

In experiment [2] the target is T1, ankG in human brain homogenate (human, UniProt Q12955 1-4377, limits assumed).
T1 construct: Endogenous protein in co-immunoprecipitation; also called ankG (human frontal cortex, hippocampus, AD hippocampus)
T1 sequence (Q12955 whole entry): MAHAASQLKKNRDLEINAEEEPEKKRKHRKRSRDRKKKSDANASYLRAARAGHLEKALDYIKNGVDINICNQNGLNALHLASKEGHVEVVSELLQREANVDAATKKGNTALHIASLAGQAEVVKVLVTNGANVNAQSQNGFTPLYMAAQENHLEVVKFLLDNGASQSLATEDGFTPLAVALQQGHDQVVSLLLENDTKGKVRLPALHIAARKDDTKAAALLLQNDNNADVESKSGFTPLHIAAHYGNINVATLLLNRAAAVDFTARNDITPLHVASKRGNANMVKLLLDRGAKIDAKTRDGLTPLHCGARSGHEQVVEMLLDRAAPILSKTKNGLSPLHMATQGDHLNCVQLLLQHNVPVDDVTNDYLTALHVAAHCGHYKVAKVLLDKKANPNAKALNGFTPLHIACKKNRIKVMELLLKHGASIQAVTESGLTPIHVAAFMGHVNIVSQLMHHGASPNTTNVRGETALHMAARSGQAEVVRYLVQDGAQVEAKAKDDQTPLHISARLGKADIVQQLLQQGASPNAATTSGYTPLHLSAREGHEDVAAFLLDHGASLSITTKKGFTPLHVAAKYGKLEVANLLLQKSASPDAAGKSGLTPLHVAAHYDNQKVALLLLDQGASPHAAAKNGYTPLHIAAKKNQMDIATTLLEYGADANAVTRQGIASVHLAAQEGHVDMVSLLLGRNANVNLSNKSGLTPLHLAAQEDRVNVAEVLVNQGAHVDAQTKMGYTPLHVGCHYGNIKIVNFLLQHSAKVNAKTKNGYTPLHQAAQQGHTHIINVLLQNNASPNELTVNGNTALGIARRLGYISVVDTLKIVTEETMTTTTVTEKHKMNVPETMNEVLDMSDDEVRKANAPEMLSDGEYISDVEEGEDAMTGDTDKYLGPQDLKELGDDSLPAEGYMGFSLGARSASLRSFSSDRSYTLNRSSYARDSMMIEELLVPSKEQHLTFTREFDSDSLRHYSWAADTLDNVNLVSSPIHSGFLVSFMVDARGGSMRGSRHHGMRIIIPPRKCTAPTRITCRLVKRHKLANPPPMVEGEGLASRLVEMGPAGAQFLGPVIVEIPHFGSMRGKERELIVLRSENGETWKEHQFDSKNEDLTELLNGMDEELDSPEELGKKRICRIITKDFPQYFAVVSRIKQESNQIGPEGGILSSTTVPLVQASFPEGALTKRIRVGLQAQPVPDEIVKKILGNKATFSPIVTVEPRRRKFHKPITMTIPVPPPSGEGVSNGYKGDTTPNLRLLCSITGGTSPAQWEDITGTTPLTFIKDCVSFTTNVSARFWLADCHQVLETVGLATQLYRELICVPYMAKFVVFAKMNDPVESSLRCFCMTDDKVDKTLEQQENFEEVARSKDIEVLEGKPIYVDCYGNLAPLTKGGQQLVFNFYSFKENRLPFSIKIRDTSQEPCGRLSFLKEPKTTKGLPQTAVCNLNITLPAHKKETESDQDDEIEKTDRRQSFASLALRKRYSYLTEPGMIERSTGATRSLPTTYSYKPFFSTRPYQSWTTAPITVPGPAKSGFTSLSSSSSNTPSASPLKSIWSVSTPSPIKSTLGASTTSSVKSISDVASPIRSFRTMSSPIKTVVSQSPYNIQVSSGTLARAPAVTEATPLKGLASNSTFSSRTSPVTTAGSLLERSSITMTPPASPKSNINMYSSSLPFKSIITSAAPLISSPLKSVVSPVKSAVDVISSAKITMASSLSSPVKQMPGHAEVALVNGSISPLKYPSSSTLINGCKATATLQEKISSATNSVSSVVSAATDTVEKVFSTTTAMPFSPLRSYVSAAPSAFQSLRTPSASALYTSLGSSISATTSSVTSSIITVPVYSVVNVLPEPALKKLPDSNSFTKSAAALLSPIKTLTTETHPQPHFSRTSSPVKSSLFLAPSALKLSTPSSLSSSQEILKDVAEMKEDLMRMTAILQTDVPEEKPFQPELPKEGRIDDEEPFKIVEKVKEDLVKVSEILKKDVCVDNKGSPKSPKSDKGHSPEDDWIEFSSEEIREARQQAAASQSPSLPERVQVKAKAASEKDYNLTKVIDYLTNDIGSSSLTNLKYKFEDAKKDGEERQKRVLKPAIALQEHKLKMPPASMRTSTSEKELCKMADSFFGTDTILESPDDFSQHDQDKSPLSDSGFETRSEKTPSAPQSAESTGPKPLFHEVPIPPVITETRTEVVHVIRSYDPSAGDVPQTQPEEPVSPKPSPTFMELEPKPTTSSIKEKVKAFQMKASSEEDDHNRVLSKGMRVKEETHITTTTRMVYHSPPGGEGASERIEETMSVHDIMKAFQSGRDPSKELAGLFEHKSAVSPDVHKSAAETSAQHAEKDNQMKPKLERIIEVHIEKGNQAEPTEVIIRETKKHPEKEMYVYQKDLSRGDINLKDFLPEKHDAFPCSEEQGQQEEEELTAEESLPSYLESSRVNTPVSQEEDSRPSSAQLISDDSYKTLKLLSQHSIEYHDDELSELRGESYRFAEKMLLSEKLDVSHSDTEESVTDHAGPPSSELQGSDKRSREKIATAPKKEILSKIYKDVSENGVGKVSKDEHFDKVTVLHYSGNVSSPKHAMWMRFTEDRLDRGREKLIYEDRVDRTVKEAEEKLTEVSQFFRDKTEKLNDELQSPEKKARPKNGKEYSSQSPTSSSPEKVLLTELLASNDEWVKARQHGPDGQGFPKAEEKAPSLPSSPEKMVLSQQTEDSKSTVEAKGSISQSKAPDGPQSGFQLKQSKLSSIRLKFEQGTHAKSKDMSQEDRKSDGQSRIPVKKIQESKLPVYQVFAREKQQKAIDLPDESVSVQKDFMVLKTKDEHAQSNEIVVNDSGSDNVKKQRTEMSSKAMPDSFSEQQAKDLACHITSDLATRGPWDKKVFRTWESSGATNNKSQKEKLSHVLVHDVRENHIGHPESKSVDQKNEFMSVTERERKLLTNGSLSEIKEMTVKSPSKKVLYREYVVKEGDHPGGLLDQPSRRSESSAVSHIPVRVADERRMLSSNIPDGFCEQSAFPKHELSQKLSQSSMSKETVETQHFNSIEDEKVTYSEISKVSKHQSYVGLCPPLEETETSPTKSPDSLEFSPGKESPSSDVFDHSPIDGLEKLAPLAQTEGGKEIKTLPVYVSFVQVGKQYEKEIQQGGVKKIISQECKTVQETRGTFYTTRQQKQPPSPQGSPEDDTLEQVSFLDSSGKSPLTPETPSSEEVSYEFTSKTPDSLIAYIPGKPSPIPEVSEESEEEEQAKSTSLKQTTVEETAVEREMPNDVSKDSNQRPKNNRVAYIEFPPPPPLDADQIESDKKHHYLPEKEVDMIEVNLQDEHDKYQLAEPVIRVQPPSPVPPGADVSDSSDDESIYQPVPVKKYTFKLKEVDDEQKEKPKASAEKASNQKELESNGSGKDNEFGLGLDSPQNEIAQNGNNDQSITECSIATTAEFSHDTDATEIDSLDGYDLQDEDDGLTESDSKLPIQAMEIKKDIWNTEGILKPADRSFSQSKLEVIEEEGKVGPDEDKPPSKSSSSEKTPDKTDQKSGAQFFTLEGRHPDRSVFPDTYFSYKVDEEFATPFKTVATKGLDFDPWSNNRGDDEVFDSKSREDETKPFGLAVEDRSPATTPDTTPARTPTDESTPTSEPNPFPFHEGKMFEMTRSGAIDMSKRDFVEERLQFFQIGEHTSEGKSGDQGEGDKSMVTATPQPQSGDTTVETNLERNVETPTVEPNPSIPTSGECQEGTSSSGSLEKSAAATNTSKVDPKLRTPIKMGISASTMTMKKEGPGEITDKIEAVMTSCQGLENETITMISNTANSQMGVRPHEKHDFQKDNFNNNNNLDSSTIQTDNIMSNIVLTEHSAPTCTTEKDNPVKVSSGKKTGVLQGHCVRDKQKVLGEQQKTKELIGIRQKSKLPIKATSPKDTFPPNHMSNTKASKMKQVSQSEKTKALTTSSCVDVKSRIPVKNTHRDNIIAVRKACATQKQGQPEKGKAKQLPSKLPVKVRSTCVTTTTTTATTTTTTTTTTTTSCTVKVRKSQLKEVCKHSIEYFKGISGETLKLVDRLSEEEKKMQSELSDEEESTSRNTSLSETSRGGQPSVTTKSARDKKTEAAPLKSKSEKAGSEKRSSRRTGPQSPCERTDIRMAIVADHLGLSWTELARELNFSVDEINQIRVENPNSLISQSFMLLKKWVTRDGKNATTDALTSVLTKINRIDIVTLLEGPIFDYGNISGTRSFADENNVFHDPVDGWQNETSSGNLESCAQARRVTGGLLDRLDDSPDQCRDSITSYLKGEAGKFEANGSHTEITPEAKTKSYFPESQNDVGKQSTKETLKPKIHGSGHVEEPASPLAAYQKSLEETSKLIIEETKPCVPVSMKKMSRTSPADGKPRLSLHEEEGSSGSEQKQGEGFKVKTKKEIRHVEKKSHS
The experiment is described as follows: co-immunoprecipitation (ankG immunoprecipitate) from human AD hippocampus, Western blot.
Text: as §1

B1: ankG in mouse brain homogenate (other, UniProt G5E8K5 1-1961, looked up)
chain: MSEEPKEKPAKPAHRKRKGKKSDANASYLRAARAGHLEKALDYIKNGVDVNICNQNGLNALHLASKEGHVEVVSELLQREANVDAATKKGNTALHIASLAGQAEVVKVLVTNGANVNAQSQNGFTPLYMAAQENHLEVVRFLLDNGASQSLATEDGFTPLAVALQQGHDQVVSLLLENDTKGKVRLPALHIAARKDDTKAAALLLQNDTNADVESKSGFTPLHIAAHYGNINVATLLLNRAAAVDFTARNDITPLHVASKRGNANMVKLLLDRGAKIDAKTRDGLTPLHCGARSGHEQVVEMLLDRSAPILSKTKNGLSPLHMATQGDHLNCVQLLLQHNVPVDDVTNDYLTALHVAAHCGHYKVAKVLLDKKASPNAKALNGFTPLHIACKKNRIRVMELLLKHGASIQAVTESGLTPIHVAAFMGHVNIVSQLMHHGASPNTTNVRGETALHMAARSGQAEVVRYLVQDGAQVEAKAKDDQTPLHISARLGKADIVQQLLQQGASPNAATTSGYTPLHLAAREGHEDVAAFLLDHGASLSITTKKGFTPLHVAAKYGKLEVASLLLQKSASPDAAGKSGLTPLHVAAHYDNQKVALLLLDQGASPHAAAKNGYTPLHIAAKKNQMDIATSLLEYGADANAVTRQGIASVHLAAQEGHVDMVSLLLSRNANVNLSNKSGLTPLHLAAQEDRVNVAEVLVNQGAHVDAQTKMGYTPLHVGCHYGNIKIVNFLLQHSAKVNAKTKNGYTALHQAAQQGHTHIINVLLQNNASPNELTVNGNTALAIARRLGYISVVDTLKVVTEEIMTTTTITEKHKMNVPETMNEVLDMSDDEVRKASAPEKLSDGEYISDGEEGDKCTWFKIPKVQEVLVKSEDAITGDTDKYLGPQDLKELGDDSLPAEGYVGFSLGARSASLRSFSSDRSYTLNRSSYARDSMMIEELLVPSKEQHLTFTREFDSDSLRHYSWAADTLDNVNLVSSPVHSGFLVSFMVDARGGSMRGSRHHGMRIIIPPRKCTAPTRITCRLVKRHKLANPPPMVEGEGLASRLVEMGPAGAQFLGPVIVEIPHFGSMRGKERELIVLRSENGETWKEHQFDSKNEDLAELLNGMDEELDSPEELGTKRICRIITKDFPQYFAVVSRIKQESNQIGPEGGILSSTTVPLVQASFPEGALTKRIRVGLQAQPVPEETVKKILGNKATFSPIVTVEPRRRKFHKPITMTIPVPPPSGEGVSNGYKGDATPNLRLLCSITGGTSPAQWEDITGTTPLTFIKDCVSFTTNVSARFWLADCHQVLETVGLASQLYRELICVPYMAKFVVFAKTNDPVESSLRCFCMTDDRVDKTLEQQENFEEVARSKDIEVLEGKPIYVDCYGNLAPLTKGGQQLVFNFYSFKENRLPFSIKIRDTSQEPCGRLSFLKEPKTTKGLPQTAVCNLNITLPAHKKAEKADRRQSFASLALRKRYSYLTEPSMSPQSPCERTDIRMAIVADHLGLSWTELARELNFSVDEINQIRVENPNSLISQSFMLLKKWVTRDGKNATTDALTSVLTKINRIDIVTLLEGPIFDYGNISGTRSFADENNVFHDPVDGHPSFQVELETPMGLYCTPPNPFQQDDHFSDISSIESPFRTPSRLSDGLVPSQGNIEHPTGGPPVVTAEDTSLEDSKMDDSVTVTDPADPLDVDESQLKDLCQSECAQCWASVPGIPNDGRQAEPLRPQTRKVGMSSEQQEKGKSGPDEEVTEDKVKSLFEDIQLEEVEAEEMTEDQGQAMLNRVQRAELAMSSLAGWQNETPSGSLESPAQARRLTGGLLDRLDDSSDQARDSITSYLTGEPGKIEANGNHTAEVIPEAKAKPYFPESQNDIGKQSIKENLKPKTHGCGRTEEPVSPLTAYQKSLEETSKLVIEDAPKPCVPVGMKKMTRTTADGKARLNLQEEEGSTRSEPKQGEGYKVKTKKEIRNVEKKTH
notes: also called ankG (arcAbeta, non-transgenic and APP deficient mouse brains)
For B1, the binding result in experiment [1] is recorded as “no binding”.

B2: Caspr in human AD hippocampus homogenate (other, UniProt P78357 20-1384, looked up)
chain: WGYYGCDEELVGPLYARSLGASSYYSLLTAPRFARLHGISGWSPRIGDPNPWLQIDLMKKHRIRAVATQGSFNSWDWVTRYMLLYGDRVDSWTPFYQRGHNSTFFGNVNESAVVRHDLHFHFTARYIRIVPLAWNPRGKIGLRLGLYGCPYKADILYFDGDDAISYRFPRGVSRSLWDVFAFSFKTEEKDGLLLHAEGAQGDYVTLELEGAHLLLHMSLGSSPIQPRPGHTTVSAGGVLNDQHWHYVRVDRFGRDVNFTLDGYVQRFILNGDFERLNLDTEMFIGGLVGAARKNLAYRHNFRGCIENVIFNRVNIADLAVRRHSRITFEGKVAFRCLDPVPHPINFGGPHNFVQVPGFPRRGRLAVSFRFRTWDLTGLLLFSRLGDGLGHVELTLSEGQVNVSIAQSGRKKLQFAAGYRLNDGFWHEVNFVAQENHAVISIDDVEGAEVRVSYPLLIRTGTSYFFGGCPKPASRWDCHSNQTAFHGCMELLKVDGQLVNLTLVEGRRLGFYAEVLFDTCGITDRCSPNMCEHDGRCYQSWDDFICYCELTGYKGETCHTPLYKESCEAYRLSGKTSGNFTIDPDGSGPLKPFVVYCDIRENRAWTVVRHDRLWTTRVTGSSMERPFLGAIQYWNASWEEVSALANASQHCEQWIEFSCYNSRLLNTAGGYPYSFWIGRNEEQHFYWGGSQPGIQRCACGLDRSCVDPALYCNCDADQPQWRTDKGLLTFVDHLPVTQVVIGDTNRSTSEAQFFLRPLRCYGDRNSWNTISFHTGAALRFPPIRANHSLDVSFYFRTSAPSGVFLENMGGPYCQWRRPYVRVELNTSRDVVFAFDVGNGDENLTVHSDDFEFNDDEWHLVRAEINVKQARLRVDHRPWVLRPMPLQTYIWMEYDQPLYVGSAELKRRPFVGCLRAMRLNGVTLNLEGRANASEGTSPNCTGHCAHPRLPCFHGGRCVERYSYYTCDCDLTAFDGPYCNHDIGGFFEPGTWMRYNLQSALRSAAREFSHMLSRPVPGYEPGYIPGYDTPGYVPGYHGPGYRLPDYPRPGRPVPGYRGPVYNVTGEEVSFSFSTSSAPAVLLYVSSFVRDYMAVLIKDDGTLQLRYQLGTSPYVYQLTTRPVTDGQPHSINITRVYRNLFIQVDYFPLTEQKFSLLVDSQLDSPKALYLGRVMETGVIDPEIQRYNTPGFSGCLSGVRFNNVAPLKTHFRTPRPMTAELAEALRVQGELSESNCGAMPRLVSEVPPELDPWYLPPDFPYYHDEGWVAILLGFLVAFLLLGLVGMLVLFYLQNHRYKGSYHTNEPKAAHEYHPGSKPPLPTSGPAQVPTPTAAPNQAPASAPAPAPTPAPAPGPRDQNLPQILEESRSE
B2: the binding result in experiment [2] was “no binding”.
